Test results published in patent US20050256058A1 (GEORGIA TECH RESEARCH, published 2005).
Numbered stars: 1 amine (or outer) side, 2 acyl side, 3 side chain; on linkers, the order of the positions; unused ones are H or OH. Square brackets hold non-standard residues; d marks the D form. * marks the point of attachment. CH═CH‑CON(CH2Ph)2 = O=C(/C=C/*)N(Cc1ccccc1)Cc1ccccc1; AAsp = aza-Asp, O=C(N(CC(=O)[*:3])N[*:1])[*:2]; Cbz = O=C(OCc1ccccc1)*

T1: Caspase-10 (UniProt Q92851 220-521, limits assumed)
T1 sequence (looked up): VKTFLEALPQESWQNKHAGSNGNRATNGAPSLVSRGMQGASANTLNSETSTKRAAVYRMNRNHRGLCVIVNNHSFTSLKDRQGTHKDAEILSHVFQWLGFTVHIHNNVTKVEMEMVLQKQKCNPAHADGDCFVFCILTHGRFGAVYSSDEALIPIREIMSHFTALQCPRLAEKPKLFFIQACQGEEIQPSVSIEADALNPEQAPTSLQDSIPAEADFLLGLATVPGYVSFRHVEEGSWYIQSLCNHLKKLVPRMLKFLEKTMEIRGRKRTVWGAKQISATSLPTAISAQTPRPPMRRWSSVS

T2: Caspase-9 (UniProt P55211 1-416, limits assumed)
T2 sequence (looked up): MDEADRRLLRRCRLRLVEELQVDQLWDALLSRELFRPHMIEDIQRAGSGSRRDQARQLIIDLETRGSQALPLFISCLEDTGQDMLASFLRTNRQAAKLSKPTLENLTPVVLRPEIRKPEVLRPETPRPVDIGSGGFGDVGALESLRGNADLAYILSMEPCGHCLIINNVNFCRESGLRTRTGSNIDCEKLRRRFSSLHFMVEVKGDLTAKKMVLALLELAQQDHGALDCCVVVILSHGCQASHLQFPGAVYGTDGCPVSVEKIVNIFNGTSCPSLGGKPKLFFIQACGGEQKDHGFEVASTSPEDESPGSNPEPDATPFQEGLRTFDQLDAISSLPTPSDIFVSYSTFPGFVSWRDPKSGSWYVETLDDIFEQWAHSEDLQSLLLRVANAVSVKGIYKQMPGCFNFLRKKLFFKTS

T3: Caspase-6 (UniProt P55212 24-293, limits assumed)
T3 sequence (looked up): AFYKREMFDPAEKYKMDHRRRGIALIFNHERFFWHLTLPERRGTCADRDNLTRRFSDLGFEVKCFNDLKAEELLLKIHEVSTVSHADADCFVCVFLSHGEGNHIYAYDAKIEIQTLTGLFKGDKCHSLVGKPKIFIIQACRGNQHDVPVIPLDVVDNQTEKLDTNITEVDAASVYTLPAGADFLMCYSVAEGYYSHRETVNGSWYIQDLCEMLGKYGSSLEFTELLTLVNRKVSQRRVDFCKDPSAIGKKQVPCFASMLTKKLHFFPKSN

T4: Caspase-2 (UniProt P42575 170-452, limits assumed)
T4 sequence (looked up): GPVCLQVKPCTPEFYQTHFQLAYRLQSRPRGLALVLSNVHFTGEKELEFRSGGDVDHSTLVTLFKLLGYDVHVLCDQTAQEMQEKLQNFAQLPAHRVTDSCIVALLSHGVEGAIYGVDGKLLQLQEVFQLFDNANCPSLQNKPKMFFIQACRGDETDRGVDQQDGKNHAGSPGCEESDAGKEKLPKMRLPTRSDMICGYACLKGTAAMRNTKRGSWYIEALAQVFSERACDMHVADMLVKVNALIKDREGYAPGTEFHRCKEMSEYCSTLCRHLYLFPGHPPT

T5: Caspase-3 (UniProt P42574 29-277)
T5 sequence (looked up): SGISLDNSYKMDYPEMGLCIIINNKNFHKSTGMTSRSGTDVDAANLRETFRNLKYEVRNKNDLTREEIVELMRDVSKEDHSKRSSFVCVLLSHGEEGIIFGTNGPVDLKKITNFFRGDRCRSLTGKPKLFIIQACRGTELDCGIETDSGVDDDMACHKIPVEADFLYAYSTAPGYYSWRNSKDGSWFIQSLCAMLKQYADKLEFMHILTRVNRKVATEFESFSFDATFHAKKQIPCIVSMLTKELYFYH

T6: Caspase-7 (UniProt P55210 24-303)
T6 sequence (looked up): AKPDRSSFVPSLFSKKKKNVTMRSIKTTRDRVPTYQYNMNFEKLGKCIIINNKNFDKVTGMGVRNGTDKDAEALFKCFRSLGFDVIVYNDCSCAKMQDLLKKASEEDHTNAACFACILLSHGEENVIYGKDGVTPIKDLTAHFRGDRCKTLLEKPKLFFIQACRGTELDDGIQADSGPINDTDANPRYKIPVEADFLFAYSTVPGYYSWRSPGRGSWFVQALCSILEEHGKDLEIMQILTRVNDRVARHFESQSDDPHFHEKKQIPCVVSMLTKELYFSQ

B1: Cbz-Leu-Glu-Thr-AAsp-CH═CH-CON(CH2Ph)2 (peptide)
peptide: Cbz-LET[AAsp]-{CH═CH‑CON(CH2Ph)2}
SMILES: CC(C)C[C@H](NC(=O)OCc1ccccc1)C(=O)N[C@@H](CCC(=O)O)C(=O)N[C@H](C(=O)NN(CC(=O)O)C(=O)/C=C/C(=O)N(Cc1ccccc1)Cc1ccccc1)[C@@H](C)O
B2: Cbz-Asp-Glu-Val-AAsp-CH═CH-CON(CH2Ph)2 (peptide)
peptide: Cbz-DEV[AAsp]-{CH═CH‑CON(CH2Ph)2}
SMILES: CC(C)[C@H](NC(=O)[C@H](CCC(=O)O)NC(=O)[C@H](CC(=O)O)NC(=O)OCc1ccccc1)C(=O)NN(CC(=O)O)C(=O)/C=C/C(=O)N(Cc1ccccc1)Cc1ccccc1

What was measured:
Assay in all cases: cell-based or functional assay
[1] = biological target: T1, Caspase-10
[2] = biological target: Caspase-8 (UniProt Q14790 217-479)
Sequence of Caspase-8 (Q14790 217-479 limits assumed): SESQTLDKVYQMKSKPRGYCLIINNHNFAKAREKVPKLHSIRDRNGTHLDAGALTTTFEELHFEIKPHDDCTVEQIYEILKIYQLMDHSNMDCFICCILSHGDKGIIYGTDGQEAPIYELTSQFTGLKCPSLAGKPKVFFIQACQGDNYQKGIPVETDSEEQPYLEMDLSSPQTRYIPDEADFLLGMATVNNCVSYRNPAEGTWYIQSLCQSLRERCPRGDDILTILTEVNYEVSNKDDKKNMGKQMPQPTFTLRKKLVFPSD

[3] = biological target: T2, Caspase-9
[4] = biological target: T3, Caspase-6
[5] = biological target: T4, Caspase-2
[6] = biological target: T5, Caspase-3
[7] = biological target: T6, Caspase-7
[8] = biological target: T5, Caspase-3; remark: listed apart in the source

Binder | k2 [1] [M⁻¹ s⁻¹] | k2 [2] [M⁻¹ s⁻¹] | k2 [3] [M⁻¹ s⁻¹] | k2 [4] [M⁻¹ s⁻¹] | k2 [5] [M⁻¹ s⁻¹] | k2 [6] [M⁻¹ s⁻¹] | k2 [7] [M⁻¹ s⁻¹] | fold more potent inhibition than of caspase-6 [8] [fold] | fold more potent inhibition than of caspase-8 [8] [fold]
B1 | 8080 | 129000 | 1100 | 14100 | 110 | 8630 | 760 | – | –
Cbz-LET[AAsp]-{CH═CH‑CO‑tetrahydroquinoline} [Cbz-Leu-Glu-Thr-AAsp-CH═CH-CON-tetrahydroquinoline] | 9000 | 216000 | 1660 | 13000 | 92 | 12100 | 540 | – | –
Cbz-LET[AAsp]-{CH═CH‑CON(CH3)CH2‑1‑Napth} [Cbz-Leu-Glu-Thr-AAsp-CH═CH-CON(CH3)CH2-1-Napth] | 13600 | 179000 | 5030 | 21700 | 290 | 11200 | 1100 | – | –
B2 | 6300 | 8600 | 450 | 5100 | 110 | 3e+06 | 359000 | 588 | 348
Cbz-DEV[AAsp]-{CH═CH‑CONHCH2CH2Ph} [Cbz-Asp-Glu-Val-AAsp-CH═CH-CONHCH2CH2Ph] | 31400 | 129000 | 655 | 3470 | 120 | 1.95e+06 | 267000 | – | –
